The results in this text go back to PMC7582152 (2020).

First the molecules themselves.
B1: wild-type canine cardiac calsequestrin (Casq2) [canine] / ER luminal domain of IRE1α (IRE1-NLD) [modified: covalently labeled with a red fluorescent tag (Monolith NT Protein Labeling Kit RED-NHS); covalently labeled with a red fluorescent … (parent complex)
chain 1: EEGLNFPTYDGKDRVVSLTEKNFKQVLKKYDVLCLYYHESVSSDKVAQKQFQLKEIVLELVAQVLEHKDIGFVMVDAKKEAKLAKKLGFDEEGSLYVLKGDRTIEFDGEFAADVLVEFLLDLIEDPVEIINSKLEVQAFERIEDQIKLIGFFKSEESEYYKAFEEAAEHFQPYIKFFATFDKGVAKKLSLKMNEVDFYEPFMDEPIAIPDKPYTEEELVEFVKEHQRPTLRRLRPEDMFETWEDDLNGIHIVAFAERSDPDGYEFLEILKQVARDNTDNPDLSIVWIDPDDFPLLVAYWEKTFKIDLFKPQIGVVNVTDADSVWMEIPDDDDLPTAEELEDWIEDVLSGKINTEDDDNEEGDDGDDDEDDDDDDGNNSDEESNDDSDDDDE
chain 2: IFGSTSTVTLPETLLFVSTLDGSLHAVSKRTGSIKWTLKEDPVLQVPTHVEEPAFLPDPNDGSLYTLGSKNNEGLTKLPFTIPELVQASPCRSSDGILYMGKKQDIWYVIDLLTGEKQQTLSSAFADSLCPSTSLLYLGRTEYTITMYDTKTRELRWNATYFDYAASLPEDDVDYKMSHFVSNGDGLVVTVDSESGDVLWIQNYASPVVAFYVWQREGLRKVMHINVAVETLRYLTFMSGEVGRITKWKYPFPKETEAKSKLTPTLYVGKYSTSLYASPSMVHEGVAVVPRGSTLPLLEGPQTDGVTIGDKGECVITPSTDVKFDPGLKSKNKLNYLRNYWLLIGHHETPLSASTKMLERFPNNLPKHRENVIPADSEKKSFEEVINLVDQTSENAPTTVSRDVEEKPAHAPARPEAPVDSMLKD

The assay covers variants of B1. Put plainly: microscale thermophoresis (MST); IRE1-NLD covalently labeled with a red fluorescent tag; increasing amounts of Casq2 or Casq2 mutant; three independent measurements; parent: 4.3e+03 nM; read off a plot. For orientation: MST reads how a fluorescent partner responds to local heating, with and without ligand.
As for chain 1 K161R, the Kd was approximately 1.4 µM.
For chain 1 P310S, the Kd is approximately 3.2 µM.
Under chain 1 D332G stands approximately 4.8 µM; under chain 1 D288H, approximately 3.3 µM.
To chain 1 G313R belongs approximately 4.3 µM; to chain 1 L148H, approximately 2.8 µM.
Regarding chain 1 R14Q, the Kd is approximately 5.9 µM.

A word on the Kd: it is the equilibrium constant for the complex coming apart.
